How the values were obtained:
Flag-tagged TRB3 = test system: T1, Flag-tagged TRB3
T1 sequence: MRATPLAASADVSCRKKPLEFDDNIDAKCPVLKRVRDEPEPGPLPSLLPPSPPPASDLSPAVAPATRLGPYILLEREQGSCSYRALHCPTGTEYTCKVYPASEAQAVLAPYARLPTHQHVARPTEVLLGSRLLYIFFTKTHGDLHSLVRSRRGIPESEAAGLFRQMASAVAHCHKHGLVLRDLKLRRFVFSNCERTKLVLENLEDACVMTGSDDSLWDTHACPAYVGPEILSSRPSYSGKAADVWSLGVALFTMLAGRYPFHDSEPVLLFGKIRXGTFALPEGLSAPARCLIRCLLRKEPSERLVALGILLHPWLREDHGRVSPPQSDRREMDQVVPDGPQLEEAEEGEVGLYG

[1] = test system: T2, COP1-interaction-defective VPmt mutant Flag-TRB3
T2 sequence: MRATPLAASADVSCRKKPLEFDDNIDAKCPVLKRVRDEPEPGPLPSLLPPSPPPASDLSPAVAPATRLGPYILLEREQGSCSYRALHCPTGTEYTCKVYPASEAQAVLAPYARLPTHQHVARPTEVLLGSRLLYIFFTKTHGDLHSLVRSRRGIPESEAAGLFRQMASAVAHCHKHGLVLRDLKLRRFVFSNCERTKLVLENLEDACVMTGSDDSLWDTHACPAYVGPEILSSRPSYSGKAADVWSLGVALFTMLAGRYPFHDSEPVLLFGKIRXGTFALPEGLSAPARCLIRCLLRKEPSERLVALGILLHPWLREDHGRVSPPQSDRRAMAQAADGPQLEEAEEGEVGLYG

“HA-tagged COP1 (Constitutive Photomorphogenic Protein 1)” was tested, and the “degradation of TRB3 protein after removal of MG132” value (Flag-tagged TRB3) was “COP1+DET1 promoted degradation of wild-type but not VPmt TRB3 protein”, the “ubiquitination of TRB3, MS analysis” value (Flag-tagged TRB3) was “COP1 promotes ubiquitination of wild-type but not COP1-interaction defective (VPmt) TRB3 at 3 major sites” and the “degradation of TRB3 protein after removal of MG132” value [1] was “COP1+DET1 promoted degradation of wild-type but not VPmt TRB3 protein”. For the same substance, the “ubiquitination of TRB3, MS analysis” value [1] was “COP1 promotes ubiquitination of wild-type but not COP1-interaction defective (VPmt) TRB3 at 3 major sites”.

From US20080014583
